In the Human Domainome abundance scans (Beltran et al. 2025) one finds abundance fitness data, which are given here for 44 variants.

± gives the uncertainty stated by the source.

The labels stand for the following.
B1: CD2-associated protein, residues 271 to 331; numbered along this chain, Q9Y5K6 (parent)
chain: KEYCRTLFAYEGTNEDELTFKEGEIIHLISKETGEAGWWRGELNGKEGVFPDNFAVQINEL

The variants in the data set derive from B1. Briefly: abundance fitness (aPCA) (normalised: wild type 0, dead -1); higher = more abundant; growth selection in yeast, the domain comes from the species named. To be noted: Homo sapiens.
In the case of KEYCRTLFAYEGTNEDELTFKEGEIIHLISKETGEAGWWWGELNGKEGVFPDNFAVQINEL [R40W], the abundance fitness was -0.377 ± 0.067.
For KEYCRTLFAYEGTNEDELTFKEGEIIHLISKETGEAGWWEGELNGKEGVFPDNFAVQINEL [R40E], the abundance fitness was -0.604 ± 0.09.
In the case of KEYCRTLFAYEGTNEDELTFKEGEIIHLISKETGEAGWWQGELNGKEGVFPDNFAVQINEL [R40Q] it was -0.3 ± 0.071.
Then KEYCRTLFAYEGTNEDELTFKEGEIIHLISKETGEAGWWAGELNGKEGVFPDNFAVQINEL [R40A], with -0.426 ± 0.065.
In the case of KEYCRTLFAYEGTNEDELTFKEGEIIHLISKETGEAGWWCGELNGKEGVFPDNFAVQINEL [R40C] it was -0.332 ± 0.07; in that of KEYCRTLFAYEGTNEDELTFKEGEIIHLISKETGEAGWWHGELNGKEGVFPDNFAVQINEL [R40H], -0.296 ± 0.09; in that of KEYCRTLFAYEGTNEDELTFKEGEIIHLISKETGEAGWWDGELNGKEGVFPDNFAVQINEL [R40D], -0.546 ± 0.099.
Turning to KEYCRTLFAYEGTNEDELTFKEGEIIHLISKETGEAGWWRCELNGKEGVFPDNFAVQINEL [G41C], the abundance fitness is -1.07 ± 0.35.
In the case of KEYCRTLFAYEGTNEDELTFKEGEIIHLISKETGEAGWWRAELNGKEGVFPDNFAVQINEL [G41A] it was -0.703 ± 0.12; in that of KEYCRTLFAYEGTNEDELTFKEGEIIHLISKETGEAGWVRGELNGKEGVFPDNFAVQINEL [W39V], -0.519 ± 0.087; in that of KEYCRTLFAYEGTNEDELTFKEGEIIHLISKETGEAGWNRGELNGKEGVFPDNFAVQINEL [W39N], -0.734 ± 0.14.
Regarding KEYCRTLFAYEGTNEDELTFKEGEIIHLISKETGEAGWERGELNGKEGVFPDNFAVQINEL [W39E], the abundance fitness is -0.663 ± 0.12.
In the case of KEYCRTLFAYEGTNEDELTFKEGEIIHLISKETGEAGWFRGELNGKEGVFPDNFAVQINEL [W39F] it was -0.513 ± 0.09; in that of KEYCRTLFAYEGTNEDELTFKEGEIIHLISKETGEAGWPRGELNGKEGVFPDNFAVQINEL [W39P], -0.724 ± 0.2.
Take KEYCRTLFAYEGTNEDELTFKEGEIIHLISKETGEAGWTRGELNGKEGVFPDNFAVQINEL [W39T]: the abundance fitness is -0.696 ± 0.1.
In the case of KEYCRTLFAYEGTNEDELTFKEGEIIHLISKETGEAGWHRGELNGKEGVFPDNFAVQINEL [W39H] it was -0.623 ± 0.14; in that of KEYCRTLFAYEGTNEDELTFKEGEIIHLISKETGEAGWKRGELNGKEGVFPDNFAVQINEL [W39K], -0.536 ± 0.13.
For KEYCRTLFAYEGTNEDELTFKEGEIIHLISKETGEAGWMRGELNGKEGVFPDNFAVQINEL [W39M], the abundance fitness was -0.278 ± 0.1.
Then KEYCRTLFAYEGTNEDELTFKEGEIIHLISKETGEAGWARGELNGKEGVFPDNFAVQINEL [W39A], with -0.328 ± 0.098.
As to KEYCRTLFAYEGTNEDELTFKEGEIIHLISKETGEAGWQRGELNGKEGVFPDNFAVQINEL [W39Q], the abundance fitness was -0.661 ± 0.2.
Then KEYCRTLFAYEGTNEDELTFKEGEIIHLISKETGEAGWLRGELNGKEGVFPDNFAVQINEL [W39L], with -0.532 ± 0.11.
On to KEYCRTLFAYEGTNEDELTFKEGEIIHLISKETGEAGWRRGELNGKEGVFPDNFAVQINEL [W39R], for which the abundance fitness was -0.547 ± 0.06.
In the case of KEYCRTLFAYEGTNEDELTFKEGEIIHLISKETGEAGWYRGELNGKEGVFPDNFAVQINEL [W39Y] it was -0.579 ± 0.11.
Then KEYCRTLFAYEGTNEDELTFKEGEIIHLISKETGEAGWDRGELNGKEGVFPDNFAVQINEL [W39D], with -0.941 ± 0.47; and KEYCRTLFAYEGTNEDELTFKEGEIIHLISKETGEAGWCRGELNGKEGVFPDNFAVQINEL [W39C], with -0.48 ± 0.12.
Then KEYCRTLFAYEGTNEDELTFKEGEIIHLISKETGEAGWGRGELNGKEGVFPDNFAVQINEL [W39G], with -0.615 ± 0.082.
Regarding KEYCRTLFAYEGTNEDELTFKEGEIIHLISKETGEAGWIRGELNGKEGVFPDNFAVQINEL [W39I], the abundance fitness is -0.851 ± 0.17.
As for KEYCRTLFAYEGTNEDELTFKEGEIIHLISKETGEFGWWRGELNGKEGVFPDNFAVQINEL [A36F], the abundance fitness was -0.158 ± 0.14.
In the case of KEYCRTLFAYEGTNEDELTFKEGEIIHLISKETGELGWWRGELNGKEGVFPDNFAVQINEL [A36L] it was -0.305 ± 0.072; in that of KEYCRTLFAYEGTNEDELTFKEGEIIHLISKETGEEGWWRGELNGKEGVFPDNFAVQINEL [A36E], -0.13 ± 0.091.
Then KEYCRTLFAYEGTNEDELTFKEGEIIHLISKETGEIGWWRGELNGKEGVFPDNFAVQINEL [A36I], with -0.193 ± 0.17.
In the case of KEYCRTLFAYEGTNEDELTFKEGEIIHLISKETGEWGWWRGELNGKEGVFPDNFAVQINEL [A36W] it was -0.22 ± 0.068.
Consider KEYCRTLFAYEGTNEDELTFKEGEIIHLISKETGEHGWWRGELNGKEGVFPDNFAVQINEL [A36H], for which the abundance fitness was -0.199 ± 0.15.
In the case of KEYCRTLFAYEGTNEDELTFKEGEIIHLISKETGEYGWWRGELNGKEGVFPDNFAVQINEL [A36Y] it was -0.334 ± 0.15; in that of KEYCRTLFAYEGTNEDELTFKEGEIIHLISKETGETGWWRGELNGKEGVFPDNFAVQINEL [A36T], -0.044 ± 0.066.
With KEYCRTLFAYEGTNEDELTFKEGEIIHLISKETGEDGWWRGELNGKEGVFPDNFAVQINEL [A36D], the abundance fitness is -0.082 ± 0.11.
Then KEYCRTLFAYEGTNEDELTFKEGEIIHLISKETGEVGWWRGELNGKEGVFPDNFAVQINEL [A36V], with -0.03 ± 0.064.
Then KEYCRTLFAYEGTNEDELTFKEGEIIHLISKETGEMGWWRGELNGKEGVFPDNFAVQINEL [A36M], with -0.18 ± 0.14.
Then KEYCRTLFAYEGTNEDELTFKEGEIIHLISKETGEGGWWRGELNGKEGVFPDNFAVQINEL [A36G], with -0.235 ± 0.051; and KEYCRTLFAYEGTNEDELTFKEGEIIHLISKETGEKGWWRGELNGKEGVFPDNFAVQINEL [A36K], with -0.008 ± 0.094; and KEYCRTLFAYEGTNEDELTFKEGEIIHLISKETGEPGWWRGELNGKEGVFPDNFAVQINEL [A36P], with 0.114 ± 0.09.
On to KEYCRTLFAYEGTNEDELTFKEGEIIHLISKETGERGWWRGELNGKEGVFPDNFAVQINEL [A36R], for which the abundance fitness was -0.054 ± 0.046.
Then KEYCRTLFAYEGTNEDELTFKEGEIIHLISKETGECGWWRGELNGKEGVFPDNFAVQINEL [A36C], with -0.147 ± 0.11; and KEYCRTLFAYEGTNEDELTFKEGEIIHLISKETGEQGWWRGELNGKEGVFPDNFAVQINEL [A36Q], with 0.036 ± 0.12.
